Test results as given in doi:10.1101/2024.07.05.602318 (bioRxiv, 2024).
Residue numbers refer to the chain shown, from its start. In names and notes the source's numbering stands.

B1: POLDIP2 H225A, residues 52-368 (natural protein, human, UniProt Q9Y2S7 52-368, looked up)
chain: SSRNRPEGKVLETVGVFEVPKQNGKYETGQLFLHSIFGYRGVVLFPWQARLYDRDVASAAPEKAENPAGHGSKEVKGKTHTYYQVLIDARDCPHISQRSQTEAVTFLANHDDSRALYAIPGLDYVSHEDILPYTSTDQVPIQHELFERFLLYDQTKAPPFVARETLRAWQEKNAPWLELSDVHRETTENIRVTVIPFYMGMREAQNSHVYWWRYCIRLENLDSDVVQLRERHWRIFSLSGTLETVRGRGVVGREPVLSKEQPAFQYSSHVSLQASSGHMWGTFRFERPDGSHFDVRIPPFSLESNKDEKTPPSGLHW
B2: POLDIP2 (DNA polymerase delta interacting protein 2), residues 52-368 (natural protein, human, UniProt Q9Y2S7 52-368, looked up)
chain: B1 chain with A174H

Target: CLPX-3xFLAG (human, UniProt O76031 65-633)
Sequence (O76031 65-633): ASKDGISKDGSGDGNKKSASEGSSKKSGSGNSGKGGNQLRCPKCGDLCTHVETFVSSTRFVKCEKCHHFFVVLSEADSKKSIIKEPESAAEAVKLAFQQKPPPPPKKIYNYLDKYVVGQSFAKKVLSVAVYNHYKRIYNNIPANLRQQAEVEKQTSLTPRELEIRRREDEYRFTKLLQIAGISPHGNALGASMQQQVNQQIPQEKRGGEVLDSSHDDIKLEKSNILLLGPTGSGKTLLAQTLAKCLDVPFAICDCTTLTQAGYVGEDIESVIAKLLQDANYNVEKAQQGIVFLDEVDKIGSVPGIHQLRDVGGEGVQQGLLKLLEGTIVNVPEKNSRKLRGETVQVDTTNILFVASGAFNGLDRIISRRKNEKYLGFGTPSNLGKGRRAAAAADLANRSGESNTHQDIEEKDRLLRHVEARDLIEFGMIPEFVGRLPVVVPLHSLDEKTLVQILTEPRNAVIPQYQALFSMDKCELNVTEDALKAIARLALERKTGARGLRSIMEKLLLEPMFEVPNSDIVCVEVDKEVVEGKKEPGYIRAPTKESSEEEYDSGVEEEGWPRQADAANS
Test: co-IP

Binder | binding result
B1 | binds
B2 | binds
